Measured values: US8927280B2, “Compositions and methods for promoting the generation of definitive endoderm” (President and Fellows of Harvard College, priority 2009, dated 2015)

Experiments:
[1] = system: endoderm derived from Pdx1-GFP mouse ES cells; test: Differentiation of induced endoderm into Pdx1+ pancreatic progenitors; assay type: cell-based
Experimental: (§1) Mouse ES cells were routinely cultured on irradiated CF-1 MEF feeder cells in DMEM (Gibco) media supplemented with 15% Fetal Bovine Serum (HyClone FBS, Invitrogen), 2 mM L-glutamine (L-Glu, Gibco), 1.1 mM 2-mercaptoethanol (Gibco), 1 mM nonessential amino acids (Gibco), 1× penicillin/streptomycin (P/S, Gibco) and 5×10^5 units LIF (Chemicon). Cells were passaged at the ratio of 1:6-1:12 every 2-3 days using 0.25% trypsin. To generate the starting population, mouse ES cells was cultured on MEF feeder cells until they reached 80-90% confluence. Prior to differentiation, ES cells were passaged onto gelatin coated plates for 30 min to remove MEFs. MEF depleted ES cells were seeded at 2500 cells per cm^2 on gelatinized plates. After overnight culture, cells were exposed to 25 ng/ml Wnt3a (R&D Systems)+50 ng/ml recombinant Activin A (R&D Systems) or 500 ng/ml Nodal (R&D Systems) in DMEM (Gibco) supplemented with 1×L-Glu and 0.2% FBS (Gibco) for 1 day, then Activin A or Nodal in the same media and cultured for 4-6 days to induce endoderm differentiation. For the chemical inductions, compounds IDE1 and IDE2 (provided by Stuart L. Schreiber) were added at 5 μM concentration in the differentiation media. For pancreatic progenitors induction, the cells were transferred to 50 ng/ml FGF10 (R&D Systems), 0.75 μM KAAD-cyclopamine (Calbiochem) and 2 μM RA (Sigma) or Indolactam V 330 nM (Axxora) in DMEM supplemented with 1×L-Glu, 1×PS, 1×B27 (Invitrogen) for 4 days. SHB431542 was purchased from Sigma. All stock compounds were made with either DMSO or PBS
(§2) Cells were fixed in 4% paraformaldehyde (Sigma) in PBS for 20 min at 4° C. followed by a wash with PBS. Cells were blocked with 10% donkey serum (Jackson Immunoresearch) in PBS/0.1% Triton X and incubated with primary antibodies overnight at 4° C. Secondary antibodies were incubated for 1 h at room temperature. The following antibodies and dilutions were used: goat anti-SOX17, (1:500 R&D systems); rabbit anti-PDX1 (1:200, Chemicon), rabbit anti-FoxA2 (1:500; Upstate), rabbit anti-Dab2 (1:200, Santa Cruz), rabbit anti-SPARC (1:200, Santa Cruz,), mouse anti-AFP (1:100, Sigma), anti-Gata6 (1:50, Santa Cruz Biotech), goat anti-HNF6 (1:200, Santa Cruz Biotech), rabbit anti-RFP/DsRed (1:300, MBL), rabbit anti-GFP (1:200, Molecular Probes). Secondary antibodies were: rhodamine Red-X-conjugated donkey anti-goat antibody, 1:200 (JIRL), Alexa-488-conjugated goat anti-mouse and Alexa-594-conjugated goat anti-rabbit antibodies (1:300, Molecular Probes). Nuclei were visualized by Hoechst 33342 (1:1000, Molecular Probes). Images were taken using an Olympus IX70 Microscope. For quantification images were analyzed for the frequency of SOX17+, FoxA2+ or Pdx1+ cells using Metamorph image analysis software (Molecular Devices) and at least 6 images per well were collected. Data were confirmed in four independent experiments.
Pancreatic progenitors appear in the pancreatic bud at E9.5 and are marked by the expression of the transcription factor Pdx1. […] Using Pdx1-GFP knock-in (Micallef et al., 2005) mouse ES cells the inventors induced definitive endoderm using either of the hit compounds and cultured cells in various conditions for additional six days.

Smad2 = test: Western blot analysis of Smad2 phosphorylation in ES cell lysates; assay type: cell-based, mouse; details: for phosphorylation of Smad2 by IDE1 or IDE2 in the presence of the ALK4/5/7 inhibitor: mouse ES cells, co-treatment; for phosphorylation of Smad2 / activation of the TGF-β pathway: ES cell lysates, after 24 hrs or longer
Experimental: Cells were lysed in 1×RIPA lysis buffer in the presence of protease inhibitor mixture (Roche)/1% phosphatase inhibitor mixture (Roche). Proteins were separated by 10% Tris-Glycine SDS/PAGE (Bio-rad) under denaturing conditions and transferred to a nitrocellulose membrane. After blocking with 5% skim milk in PBS/0.1% Triton X, the membrane was incubated with primary antibodies against phospho-Smad2 (1:1000, Cell Signaling) overnight at 4° C. The membrane was then washed, incubated with anti-mouse/rabbit peroxidase-conjugated affinity-purified secondary antibody (1:1000, Cell Signaling) at room temperature for 1 h, and developed by SuperSignal chemiluminescence (Pierce).

mouse ES cells = test: Sox17 endoderm induction in mouse ES cell monolayer cultures; assay type: cell-based; details: for percent of total cells Sox17/dsRed double positive: Sox17-dsRed mouse ES cells, day 6, low serum
Experimental: as §1, §2
Endoderm formation was monitored by Sox17 expression by either flow cytometry detection of Sox17/DsRed or immunofluorescence using anti-Sox17 antibodies. Cells labeled by antibody staining were quantified using Metamorph software ad percentage of total cell number (based on Hoechst 33342 nuclei staining). All conditions were tested in either tri- or quadruplicates.

[2] = system: human ES cells (HUES 4 and 8); test: Sox17 endoderm induction in human ES cells; assay type: cell-based
Experimental: Human embryonic stem cell lines were cultured essentially as described {Cowan, 2004 #6}. Briefly, HUES4, HUES8 and HUES9 cells are routinely cultured on irradiated CF-1 MEF feeder cells in KnockOut DMEM (Gibco) supplemented with 10% KnockOut Serum Replacement (Gibco), 10% human plasma (Invitrogen), 2 mM L-glutamine (L-Glu, Gibco), 1.1 mM 2-mercaptoethanol (Gibco), 1 mM nonessential amino acids (Gibco), 1× penicillin/streptomycin (PS, Gibco) and 10 ng/ml bFGF (Invitrogen). Cells are split at the ratio of 1:10-1:12 every 4-5 days by using 1 mg/ml collagenase type IV. To induce endoderm formation, HUES cells was cultured on MEF feeder cells till 80-90% confluent, then treated with 100 ng/ml Activin A in advanced RPMI (Gibco) supplemented with 1×L-Glu and 0.2% FBS (Gibco), or with combination of 25 ng/ml Wnt3a (R&D systems)+100 ng/ml Activin A (R&D systems) or were exposed to compounds in the same media. At days 4 and 6 of culture cells were analysed for endodermal marker expression, Sox17.
as §2

Molecule: CC(C)[C@H]1C(=O)N[C@H](CO)Cc2c[nH]c3cccc(c23)N1C [Indolactam V, (2S,5S)-1,2,4,5,6,8-Hexahydro-5-(hydroxymethyl)-1-methyl-2-(1-methylethyl)-3H-pyrrolo[4,3,2-gh]-1,4-benzodiazonin-3-one]
- increase of Pdx1+ cells above control treatment at day 12 ([1]; IDE1 or IDE2 followed by ILV): 10 fold
- percent Pdx1-GFP expressing pancreatic progenitors at day 6 ([1]; IDE1 or IDE2 induced mouse endoderm, second step treatment): 51±7.4%
- yield of pancreatic progenitors compared to a growth factor based approach ([1]; applied to IDE1 or IDE2 derived endoderm): higher yields of pancreatic progenitors
- percent of total cells Pdx1+ at day 12 ([1]; cultures treated initially with IDE1 or IDE2 and followed by ILV): 50%
- increase in Pdx1+ cell number compared to known published protocols ([1]; two-step treatment): 4 fold
- percent of Pdx1+ cells also expressing other pancreatic progenitor markers, including HNF6 ([1]; two-step treatment): 92±5%
- increase in Pdx1+ cell number compared to the control DMSO treated ([1]; two-step treatment, Pdx1 antibody staining): 10 fold
- percent of cells positive with Pdx1 antibodies ([1]; two-step treatment: IDE1 and/or IDE2, then Indolactam V): 53±6.4%

Molecule: NC(=O)c1ccc(-c2nc(-c3ccc4c(c3)OCO4)c(-c3ccccn3)[nH]2)cc1 [SB43125, reference compound]
- phosphorylation of Smad2 by IDE1 or IDE2 in the presence of the ALK4/5/7 inhibitor (Smad2): strongly attenuated
- phosphorylation of Smad2 by IDE1 or IDE2 in the presence of the ALK4/5/7 inhibitor (Smad2; listed as SB431542): significantly attenuated
- induction of Sox17 protein under co-treatment of IDE1 or IDE2 with the ALK4/5/7 inhibitor (mouse ES cells; mouse ES cells): 5.6±1.3%

B1: Nodal: TGF-β family growth factor, protein inducer of endoderm (protein, UniProt Q96S42 238-347, looked up)
Nodal homolog: HHLPDRSQLCRKVKFQVDFNLIGWGSWIIYPKQYNAYRCEGECPNPVGEEFHPTNHAYIQSLLKRYQPHRVPSTCCAPVKTKPLSMLYVDNGRVLLDHHKDMIVEECGCL
- phosphorylation of Smad2 / activation of the TGF-β pathway (Smad2): high level
- percent of total cells Sox17/dsRed double positive (mouse ES cells): 45%
- percent of ES cells that form (definitive) endoderm, summary statement (mouse ES cells; mouse ES cells): about 45%

B2: Activin A: recombinant TGF-β family growth factor, protein inducer of endoderm (protein, UniProt P08476 311-426, looked up)
Inhibin beta A chain: GLECDGKVNICCKKQFFVSFKDIGWNDWIIAPSGYHANYCEGECPSHIAGTSGSSLSFHSTVINHYRMRGHSPFANLKSCCVPTKLRPMSMLYYDDGQNIIKKDIQNMIVEECGCS
- phosphorylation of Smad2 / activation of the TGF-β pathway (Smad2): high level
- percent of total cells Sox17/dsRed double positive (mouse ES cells): 45%
- percent of ES cells that form (definitive) endoderm, summary statement (mouse ES cells; mouse ES cells): about 45%
- % of Sox17+ cells compared to IDE1 or IDE2 at all tested time points (mouse ES cells; mouse ES cells, 14 days of treatment): significant but lower % of Sox17+ cells
- percentage of cells expressing Sox17 at day 2 of treatment (mouse ES cells; mouse ES cells, day 2): 13%
- percentage of cells expressing Sox17 at day 4 of treatment (mouse ES cells; mouse ES cells, day 4): 28%
- percent of cells expressing Pdx1 after FGF10, KAAD-cyclopamine and retinoic acid ([1]; label = inducer of the starting endoderm, mouse ES cells): 12.1±4%
- percent of cells expressing Sox17 ([2]; HUES cells, 4 days, IDE1 100 nM, IDE2 200 nM): 64±6.3%
- increase of Sox17 expression compared to the vehicle treatment ([2]; human ESC cultures, 6 days): 4 fold
- percent of total cells expressing Sox17 after 6 days ([2]; human ESC cultures, 6 days): 55-65%

B3: Wnt3a: Wnt growth factor family member (protein, UniProt P56704 19-352, looked up)
Protein Wnt-3a: SYPIWWSLAVGPQYSSLGSQPILCASIPGLVPKQLRFCRNYVEIMPSVAEGIKIGIQECQHQFRGRRWNCTTVHDSLAIFGPVLDKATRESAFVHAIASAGVAFAVTRSCAEGTAAICGCSSRHQGSPGKGWKWGGCSEDIEFGGMVSREFADARENRPDARSAMNRHNNEAGRQAIASHMHLKCKCHGLSGSCEVKTCWWSQPDFRAIGDFLKDKYDSASEMVVEKHRESRGWVETLRPRYTYFKVPTERDLVYYEASPNFCEPNPETGSFGTRDRTCNVSSHGIDGCDLLCCGRGHNARAERRREKCRCVFHWCCYVSCQECTRVYDVHTCK
- synergy / combined effect on Sox17 induction (mouse ES cells; mouse ES cells, co-treatment): no significant effect
